Here are results for two molecules from patent US7642046B2, “Method for monitoring recruitment of proteins to the intracellular domain of a receptor in intact cells” (priority 2001, dated 2010).

Test [1] has as its target T1, CD40 (Homo sapiens, UniProt P25942).
T1 construct: expressed in transfected cells; host or cells: HEK 293T
The experiment in a line: TRAF binding to CD40 in cell lysate: separately expressed extracts mixed 1:1, ELISA. The note with it: extracts mixed 1:1, over night at 4° C. An excerpt:
To measure TRAF recruitment to CD40 many studies relied on experimental systems that probe TRAF binding to synthetic peptides or soluble fragments of the CD40 signaling domain (Rothe et al. 1994, Hu et al. 1994, Cheng et al. 1995, Mosialos et al. 1995, Ishida et al. it 1996, Ishida et al. b 1996, Boucher et al. 1997, Pullen et al. 1998 and Pullen et al. 1999). […] Therefore, recruitment of TRAF1 and TRAF2 by CD40 intact cells versus cell lysate was compared. In the experiment, CD40 and TRAF1 or TRAF2 were co-expressed or expressed separately in 293T cells (constructs described in example 7 below). Plasmid concentrations and ratios were identical to the experiment described in example 1. After 27 hours, the cells were detergent lysed as in example 1. The extracts from 293T cells expressing only CD40 or the TRAF of interest were mixed at a 1:1 ratio and incubated over night at 4° C. Extracts expressing both CD40 and the TRAF of interest were kept under identical conditions. Then the samples were incubated on microtiter plates coated with a mAb against the extra-cellular domain of CD40 as described in example 1. After a washing step, CD40 bound TRAFs were detected with anti TRAF antibodies (example 1). Quantitation of TRAF recruited to CD40 was carried out as described in the example 3 below.
For orientation: ELISA stands for enzyme-linked immunosorbent assay.

The target of test [2] is T1, CD40. Nature of the test: Recruitment assay in intact cells: CD40 and TRAF co-expressed in 293T cells, anti-CD40 capture ELISA of lysate. It is filed as cell-based. The settings on record: for interaction with CD40 when signalosome assembly occurred in an intact cell: co-expressed in 293T cells, versus cell lysate. The procedure:
In order monitor TNF receptor associated factor 1 (TRAF1) recruitment to the CD40 receptor, in intact cells, CD40 and TRAF1 encoding plasmids generated as described in example 7) were used to co-transfect the human embryonic kidney 293T cells (HEK293 ATTC CRL-1573 over expressing the T antigen) (DuBridge et al 1987). 2×10^5 cells were seeded at into 3.5 cm dishes grown 16 hours at 37° C. and transfected with 1 μg CD40 expression plasmid and 2 μg of an expression plasmid encoding TRAF by the calcium phosphate method (Kingston et al. 1993). The two expression plasmids, TRAF1 plasmid and CD40 plasmid were used for transfection at a ratio greater than 2:1 respectively in order to saturate all the CD40 molecules produced. Twenty-seven hours after transfection, the cells were detached, washed once with ice cold phosphate buffered saline (PBS) and detergent extracted with
180 μl lysis buffer [phosphate buffered saline (PBS) containing a protease inhibitor cocktail (0.16 mM Pefabloc, 105 IU Aprotinin), 1% Triton X100 and 0.1% Na Azide]. Since CD40 has a tendency for ligand independent signaling when expressed at high levels it was not necessary to activate the receptor with DC40 ligand or mimetic anti CD40 antibodies before lysis. This feature is shared by various members of the TNFR gene family (Boldin et al. 1995, Siegel et al. 2000 and Chan et al. 2000). […]
The recruitment of TRAF to CD40 can be quantitatively measured using the assay described in example 1. […] The CD40 bound TRAF concentration was measured as described in example 1. […] The necessary normalization for sample-to-sample variations in the CD40 expression was calculated with the following formula:
[formula] CD40 concentrations were determined with an ELISA employing a monoclonal antibody (solid phase) and a polyclonal anti CD40 antibody (for detection) both specific for the extracellular domain of the receptor. […]

T1 sequence (P25942 21-277): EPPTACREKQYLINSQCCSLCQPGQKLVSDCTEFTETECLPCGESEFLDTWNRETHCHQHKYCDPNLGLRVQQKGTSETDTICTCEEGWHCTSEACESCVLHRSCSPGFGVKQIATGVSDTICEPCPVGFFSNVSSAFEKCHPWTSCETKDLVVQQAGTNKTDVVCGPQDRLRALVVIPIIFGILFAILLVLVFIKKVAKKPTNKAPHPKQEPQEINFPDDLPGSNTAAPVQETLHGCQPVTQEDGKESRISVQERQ

B1: TRAF2: TNF receptor associated factor 2, human adaptor protein expressed from pcDNA3 (protein, UniProt Q12933 1-501, looked up)
chain: MAAASVTPPGSLELLQPGFSKTLLGTKLEAKYLCSACRNVLRRPFQAQCGHRYCSFCLASILSSGPQNCAACVHEGIYEEGISILESSSAFPDNAARREVESLPAVCPSDGCTWKGTLKEYESCHEGRCPLMLTECPACKGLVRLGEKERHLEHECPERSLSCRHCRAPCCGADVKAHHEVCPKFPLTCDGCGKKKIPREKFQDHVKTCGKCRVPCRFHAIGCLETVEGEKQQEHEVQWLREHLAMLLSSVLEAKPLLGDQSHAGSELLQRCESLEKKTATFENIVCVLNREVERVAMTAEACSRQHRLDQDKIEALSSKVQQLERSIGLKDLAMADLEQKVLEMEASTYDGVFIWKISDFARKRQEAVAGRIPAIFSPAFYTSRYGYKMCLRIYLNGDGTGRGTHLSLFFVVMKGPNDALLRWPFNQKVTLMLLDQNNREHVIDAFRPDVTSSSFQRPVNDMNIASGCPLFCPVSKMEAKNSYVRDDAIFIKAIVDLTGL
modifications: full-length
notes: TNF receptor associated factor 2, human adaptor protein expressed from pcDNA3
Take B1: the “binding to CD40 in cell lysate” value with CD40 [1] is given as “barely detectable”. The “interaction with CD40 when signalosome assembly occurred in an intact cell” value in the test with CD40 [2] is “clearly improved sensitivity”.

B2: TRAF1: TNF receptor associated factor 1, adaptor protein overexpressed in 293T cells from pcDNA3 (protein, UniProt Q13077 1-416, looked up)
chain: MASSSGSSPRPAPDENEFPFGCPPTVCQDPKEPRALCCAGCLSENPRNGEDQICPKCRGEDLQSISPGSRLRTQEKAHPEVAEAGIGCPFAGVGCSFKGSPQSVQEHEVTSQTSHLNLLLGFMKQWKARLGCGLESGPMALEQNLSDLQLQAAVEVAGDLEVDCYRAPCSESQEELALQHFMKEKLLAELEGKLRVFENIVAVLNKEVEASHLALATSIHQSQLDRERILSLEQRVVELQQTLAQKDQALGKLEQSLRLMEEASFDGTFLWKITNVTRRCHESACGRTVSLFSPAFYTAKYGYKLCLRLYLNGDGTGKRTHLSLFIVIMRGEYDALLPWPFRNKVTFMLLDQNNREHAIDAFRPDLSSASFQRPQSETNVASGCPLFFPLSKLQSPKHAYVKDDTMFLKCIVETST
modifications: full-length
notes: TNF receptor associated factor 1, adaptor protein overexpressed in 293T cells from pcDNA3
For the molecule B2, the “binding to CD40 in cell lysate” value with CD40 [1] is recorded as “barely detectable”. For the same molecule, the “dilution of the original extract up to which recruitment to the CD40 receptor can be detected” value with CD40 [2] (CD40 wt co-expressed with TRAF1 in 293T cells, 3 fold serial dilutions of lysate) is listed as ≤ 243 fold. Also, in the test with CD40 [2], the “interaction with CD40 when signalosome assembly occurred in an intact cell” value was “clearly improved sensitivity”.
